Data from article PMC3343272, “Asymmetric Mode of Ca^2+-S100A4 Interaction with Nonmuscle Myosin IIA Generates Nanomolar Affinity Required for Filament Remodeling” (Structure(London, England:1993), 2012).
Values joined by “and” are separate entries in the source; they are usually repeats but may differ in a detail not shown here. Identical values can stand only once. Like-named read-outs stand apart in the source and are kept apart here.

B1: M39 peptide of nonmuscle myosin IIA heavy chain (residues Q1897-A1935) (peptide)
peptide: QRELEDATETADAMNREVSSLKNKLRRGDLPFVVPRRMA
notes: nonmuscle myosin IIA heavy chain (NM-MHC IIA), residues Q1897-A1935; also called u-M39; WT M39; source: synthetic peptide; bought: GL Biochem Ltd (Shanghai, China), purity >95% by HPLC
B2: S100A4 V77D (natural protein)
chain: MACPLEKALDVMVSTFHKYSGKEGDKFKLNKSELKELLTRELPSFLGKRTDEAAFQKLMSNLDSNRDNEVDFQEYCDFLSCIAMMCNEFFEGFPDKQPRKK
notes: source: expressed and purified as described previously (Badyal et al., 2011)
B3: S100A4 C81D (natural protein)
chain: not shown
notes: as for B2
B4: M70 fragment of nonmuscle myosin IIA heavy chain (residues A1868-G1938) (domain or fragment, UniProt P35579 1868-1938, looked up)
chain: ASTRLKQLKRQLEEAEEEAQRANASRRKLQRELEDATETADAMNREVSSLKNKLRRGDLPFVVPRRMARKG
notes: nonmuscle myosin IIA heavy chain, residues A1868-G1938; small print, not read surely; also called u-M70; 15N-M70; source: recombinant; expressed and purified as described previously (Badyal et al., 2011)
B5: M111 fragment of nonmuscle myosin IIA heavy chain (residues Q1850-E1960) (domain or fragment, UniProt P35579 1850-1960, looked up)
chain: QVDDERRNAEQYKDQADKASTRLKQLKRQLEEAEEEAQRANASRRKLQRELEDATETADAMNREVSSLKNKLRRGDLPFVVPRRMARKGAGDGSDEEVDGKADGAEAKPAE
notes: nonmuscle myosin IIA heavy chain, residues Q1850-E1960; source: expressed and purified as described previously (Badyal et al., 2011)
B6: S100A4 (natural protein)
chain: not shown
notes: S100A4; the NMR analysis speaks of residues 1-101; The His-tag is named only for the SPR experiment (two His-tags in the dimer); also called WT S100A4; u-S100A4; source: expressed and purified as described previously (Badyal et al., 2011)
B7: M200 fragment of nonmuscle myosin IIA heavy chain (Q1761-E1960) (domain or fragment, UniProt P35579 1761-1960, looked up)
chain: QINTDLNLERSHAQKNENARQQLERQNKELKVKLQEMEGTVKSKYKASITALEAKIAQLEEQLDNETKERQAACKQVRRTEKKLKDVLLQVDDERRNAEQYKDQADKASTRLKQLKRQLEEAEEEAQRANASRRKLQRELEDATETADAMNREVSSLKNKLRRGDLPFVVPRRMARKGAGDGSDEEVDGKADGAEAKPAE
notes: nonmuscle myosin IIA heavy chain, residues Q1761-E1960; forms a coiled coil and filaments; source: expressed and purified as described previously (Badyal et al., 2011)
B8: M39, nonmuscle myosin IIA heavy chain peptide (residues Q1897–A1935) (peptide, UniProt P35579 1897-1935, looked up)
peptide: B1 peptide
notes: nonmuscle myosin IIA (NMIIA) heavy chain, residues Q1897-A1935; Unmodified (no fluorescent label); also called u-M39; source: synthetic peptide
B9: M111, nonmuscle myosin IIA heavy chain fragment (residues Q1850–E1960) (domain or fragment, UniProt P35579 1850-1960, looked up)
chain: B5 chain
notes: nonmuscle myosin IIA (NMIIA) heavy chain, residues Q1850-E1960
B10: M70, nonmuscle myosin IIA heavy chain fragment (residues A1868–G1938) (domain or fragment, UniProt P35579 1868-1938, looked up)
chain: B4 chain
notes: nonmuscle myosin IIA (NMIIA) heavy chain, residues A1868-G1938; also called u-M70; 13C,15N-M70; source: recombinant, unlabeled, 15N-labeled and 13C,15N-labeled

Legend:
S100A4 [1] = biological target: B6; assay: competitive turbidity assay; 12.5 µM M200 diluted into 100 mM NaCl, 20 mM Hepes, 1 mM Mg2+, 100 µM Ca2+; turbidity at 300 nm; 25 µM S100A4 (monomer) added at 800 s, 10 µM M39 added at 1450 s; details: both partners purified
S100A4 [2] = biological target: B6; assay: kinetic scheme (estimates or values required for thermodynamic balance); S100A4 dimer with a single Ca2+ bound; values in blue in the scheme, not experimental measurements; details: both partners purified
S100A4 [3] = biological target: B6; assay: kinetic scheme (estimates or values required for thermodynamic balance); apo S100A4 dimer (no Ca2+ bound); values in blue in the scheme, not experimental measurements; details: both partners purified
S100A4 [4] = biological target: B6; assay: stopped-flow Quin-2 fluorescence (Ca2+ dissociation); M39 premixed with 13 µM S100A4 (monomer concentration) and 50 µM Ca2+, mixed with 100 µM Quin-2; 20 mM NaCl, 10 mM Hepes, 1 mM MgCl2, pH 7.5, 20 °C; amplitude of the fast phase against [M39]; mutants with up to 50 µM M39; details: both partners purified
S100A4 [5] = biological target: B6; assay: SPR; Biacore X100, S100A4 (0.5 µM) coupled by its His-tags to a Ni-NTA chip; M39 at 1, 3, 9 and 27 nM; 20 mM MES pH 6.1, 150 mM NaCl, 5 mM CaCl2, 0.5 mM TCEP, 50 µM EDTA, 0.005% Surfactant P20; fit to 1:1 Langmuir model; details: both partners purified
[6] = biological target: the molecule itself; assay: SEC-MALLS; Superdex 75 10/300, 20 mM MES pH 6.1, 150 mM NaCl, 0.5 mM DTT, 0.7 ml/min; 75 µM M70, 150 µM M111, 50 µM S100A4, 50 µM S100A4 V77D, 50 µM S100A4 C81D loaded
[7] = biological target: the molecule itself; assay: as above; remark: listed apart in the source
[8] = biological target: B7; assay: competitive turbidity assay; 12.5 µM M200 diluted into 100 mM NaCl, 20 mM Hepes, 1 mM Mg2+, 100 µM Ca2+; turbidity at 300 nm; 25 µM S100A4 (monomer) added at 800 s, 10 µM M39 added at 1450 s; details: both partners purified
[9] = biological target: the molecule itself; assay: as above
[10] = biological target: T1, S100A4 V77D mutant (studied in vitro) (UniProt P26447 1-101, V77D); assay: NMR titration; S100A4 V77D and C81D mutants (Figures S3C and S3D); the myosin fragment is not given; details: both partners purified
T1 construct: Parent: m1

[11] = biological target: T2, S100A4 C81D mutant (studied in vitro) (UniProt P26447 1-101, C81D); assay: as above; details: both partners purified
T2 construct: Parent: m1

[12] = biological target: T3, S100A4, wild type, Ca^2+-bound dimer (recombinant) (UniProt P26447 1-101); assay: SPR; sensorgrams at nanomolar concentrations of M39; simultaneous fit to a single site-binding model; n = 3; details: both partners purified
T3 construct: also called WT; u-S100A4; source: recombinant, unlabeled and 13C,15N-labeled; purified

[13] = biological target: T3, S100A4, wild type, Ca^2+-bound dimer …; assay: ITC; 10 μM S100A4 in the cell, 75 μM M39 in the syringe; single site-binding model; the paper calls the KD an upper limit; details: both partners purified
[14] = biological target: T3, S100A4, wild type, Ca^2+-bound dimer …; assay: ITC + SPR + other: kinetic assays; limit that the paper gives as compatible with all its methods; details: both partners purified
[15] = biological target: T3, S100A4, wild type, Ca^2+-bound dimer …; assay: kinetic assays; kinetic assays similar to those of Badyal et al., 2011 (Figures S1I–S1L); details: both partners purified
[16] = biological target: T3, S100A4, wild type, Ca^2+-bound dimer …; assay: SEC-MALS; SEC-MALLS with refractive index and absorbance detection; S100A4 and myosin fragment mixed (1:1 molar ratio for M111); details: both partners purified

Work on B1 yielded a Kd (S100A4 [1]) of less than 10 nM, a Kd (S100A4 [2]) of 1000 nM and a Kd (S100A4 [3]) of 10 mM. The Kd (S100A4 [4]) was less than 500 nM, the “stoichiometry N” value (S100A4 [4]) was 2.6 S100A4 monomers per M39 and the Kd (S100A4 [5]) was 0.4 nM.

For B2, the “stoichiometry N” value [6] was 2.

With B3 the “stoichiometry N” value [6] was 2.

With B4 the “stoichiometry N” value [7] was 2.

With B5 the “stoichiometry N” value [7] was 2.

B6: binds [8].

B7: binds [9].

Binder B8 has a Kd [10] of roughly 100 µM, a Kd [11] of roughly 100 µM and a Kd [12] of 0.24 ± 0.07 nM. For the same binder, the Kd [13] was 5.9 nM and 4 nM, the “stoichiometry N” value [13] was 0.55 ± 0.06 M39/S100A4 and the Kd [14] was no more than 1 nM. It also gave a Kd [15] of roughly 0.1 nM.

B9 was tested, and the “stoichiometry N” value [16] was 0.5 myosin fragment per S100A4 subunit.

In the case of B10, the “stoichiometry N” value [16] is reported as 0.5 myosin fragment per S100A4 subunit.
